# Reference: IntAct's records for PubMed 17161399
# B1: Protein VAC14 homolog (Homo sapiens), Q08AM6 (parent)
# chain: MNPEKDFAPLTPNIVRALNDKLYEKRKVAALEIEKLVREFVAQNNTVQIKHVIQTLSQEFALSQHPHSRKGGLIGLAACSIALGKDSGLYLKELIEPVLTCFNDADSRLRYYACEALYNIVKVARGAVLPHFNVLFDGLSKLAADPDPNVKSGSELLDRLLKDIVTESNKFDLVSFIPLLRERIYSNNQYARQFIISWILVLESVPDINLLDYLPEILDGLFQILGDNGKEIRKMCEVVLGEFLKEIKKNPSSVKFAEMANILVIHCQTTDDLIQLTAMCWMREFIQLAGRVMLPYSSGILTAVLPCLAYDDRKKSIKEVANVCNQSLMKLVTPEDDELDELRPGQRQAEPTPDDALPKQEGTASGGPDGSCDSSFSSGISVFTAASTERAPVTLHLDGIVQVLNCHLSDTAIGMMTRIAVLKWLYHLYIKTPRKMFRHTDSLFPILLQTLSDESDEVILKDLEVLAEIASSPAGQTDDPGPLDGPDLQASHSELQVPTPGRAGLLNTSGTKGLECSPSTPTMNSYFYKFMINLLKRFSSERKLLEVRGPFIIRQLCLLLNAENIFHSMADILLREEDLKFASTMVHALNTILLTSTELFQLRNQLKDLKTLESQNLFCCLYRSWCHNPVTTVSLCFLTQNYRHAYDLIQKFGDLEVTVDFLAEVDKLVQLIECPIFTYLRLQLLDVKNNPYLIKALYGLLMLLPQSSAFQLLSHRLQCVPNPELLQTEDSLKAAPKSQKADSPSIDYAELLQHFEKVQNKHLEVRHQRSGRGDHLDRRVVL
# Variants of: B1
# Conditions: with nos1_human NOS1, P29475
# nos1_human NOS1, P29475, sequence (P29475 whole entry): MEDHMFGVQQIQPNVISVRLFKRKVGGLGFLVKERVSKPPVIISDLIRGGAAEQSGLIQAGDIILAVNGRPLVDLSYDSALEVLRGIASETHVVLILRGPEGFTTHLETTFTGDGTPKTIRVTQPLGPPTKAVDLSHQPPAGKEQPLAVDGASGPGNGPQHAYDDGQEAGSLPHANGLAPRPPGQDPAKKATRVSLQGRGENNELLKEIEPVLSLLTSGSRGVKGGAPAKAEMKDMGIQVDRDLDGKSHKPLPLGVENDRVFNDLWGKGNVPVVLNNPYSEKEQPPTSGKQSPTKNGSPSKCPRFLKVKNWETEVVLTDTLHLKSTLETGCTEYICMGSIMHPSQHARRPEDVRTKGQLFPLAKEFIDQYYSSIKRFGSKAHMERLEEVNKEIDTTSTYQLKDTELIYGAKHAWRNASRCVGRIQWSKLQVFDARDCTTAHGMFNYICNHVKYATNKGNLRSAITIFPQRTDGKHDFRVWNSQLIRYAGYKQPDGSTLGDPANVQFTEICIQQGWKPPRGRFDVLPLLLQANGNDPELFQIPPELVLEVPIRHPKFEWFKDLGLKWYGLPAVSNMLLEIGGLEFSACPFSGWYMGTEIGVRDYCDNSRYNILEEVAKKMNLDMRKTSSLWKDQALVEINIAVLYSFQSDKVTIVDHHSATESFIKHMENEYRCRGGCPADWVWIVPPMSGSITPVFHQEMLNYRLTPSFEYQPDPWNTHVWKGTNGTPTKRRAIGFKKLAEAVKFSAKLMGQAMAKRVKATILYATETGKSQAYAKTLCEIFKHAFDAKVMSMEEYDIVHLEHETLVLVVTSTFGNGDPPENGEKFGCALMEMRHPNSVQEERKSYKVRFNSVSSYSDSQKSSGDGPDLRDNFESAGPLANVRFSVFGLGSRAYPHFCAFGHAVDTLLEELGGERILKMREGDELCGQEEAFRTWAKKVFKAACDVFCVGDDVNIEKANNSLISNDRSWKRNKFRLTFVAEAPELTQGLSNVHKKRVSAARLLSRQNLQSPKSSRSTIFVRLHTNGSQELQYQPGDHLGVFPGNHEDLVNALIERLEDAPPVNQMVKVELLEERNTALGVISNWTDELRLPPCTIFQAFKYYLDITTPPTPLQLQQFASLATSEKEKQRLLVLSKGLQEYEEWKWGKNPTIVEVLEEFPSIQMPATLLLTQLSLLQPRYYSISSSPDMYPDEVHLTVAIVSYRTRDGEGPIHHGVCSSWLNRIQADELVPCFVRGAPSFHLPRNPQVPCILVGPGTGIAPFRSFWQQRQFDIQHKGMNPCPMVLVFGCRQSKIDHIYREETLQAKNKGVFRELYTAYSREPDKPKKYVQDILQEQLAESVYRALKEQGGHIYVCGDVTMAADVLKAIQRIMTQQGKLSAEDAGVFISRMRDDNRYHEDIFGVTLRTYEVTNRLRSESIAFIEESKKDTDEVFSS
row,Variant,effect of a mutation on the interaction
1,D777A,disrupting interaction

# Variants of: B1
# Conditions: with nos1_human NOS1, P29475
# Remark: another data set of the same source
row,Variant,effect of a mutation on the interaction
1,G773A,decreasing interaction
2,D774A,disrupting interaction
3,L776A,disrupting interaction
